Patent US20250011471A1 (published 2025)

T1: mouse KLB (mouse, UniProt Q99N32 53-990)
T1 construct: KLB cDNA in pRK vector, transiently expressed on HEK293T cells for FACS
T1 sequence: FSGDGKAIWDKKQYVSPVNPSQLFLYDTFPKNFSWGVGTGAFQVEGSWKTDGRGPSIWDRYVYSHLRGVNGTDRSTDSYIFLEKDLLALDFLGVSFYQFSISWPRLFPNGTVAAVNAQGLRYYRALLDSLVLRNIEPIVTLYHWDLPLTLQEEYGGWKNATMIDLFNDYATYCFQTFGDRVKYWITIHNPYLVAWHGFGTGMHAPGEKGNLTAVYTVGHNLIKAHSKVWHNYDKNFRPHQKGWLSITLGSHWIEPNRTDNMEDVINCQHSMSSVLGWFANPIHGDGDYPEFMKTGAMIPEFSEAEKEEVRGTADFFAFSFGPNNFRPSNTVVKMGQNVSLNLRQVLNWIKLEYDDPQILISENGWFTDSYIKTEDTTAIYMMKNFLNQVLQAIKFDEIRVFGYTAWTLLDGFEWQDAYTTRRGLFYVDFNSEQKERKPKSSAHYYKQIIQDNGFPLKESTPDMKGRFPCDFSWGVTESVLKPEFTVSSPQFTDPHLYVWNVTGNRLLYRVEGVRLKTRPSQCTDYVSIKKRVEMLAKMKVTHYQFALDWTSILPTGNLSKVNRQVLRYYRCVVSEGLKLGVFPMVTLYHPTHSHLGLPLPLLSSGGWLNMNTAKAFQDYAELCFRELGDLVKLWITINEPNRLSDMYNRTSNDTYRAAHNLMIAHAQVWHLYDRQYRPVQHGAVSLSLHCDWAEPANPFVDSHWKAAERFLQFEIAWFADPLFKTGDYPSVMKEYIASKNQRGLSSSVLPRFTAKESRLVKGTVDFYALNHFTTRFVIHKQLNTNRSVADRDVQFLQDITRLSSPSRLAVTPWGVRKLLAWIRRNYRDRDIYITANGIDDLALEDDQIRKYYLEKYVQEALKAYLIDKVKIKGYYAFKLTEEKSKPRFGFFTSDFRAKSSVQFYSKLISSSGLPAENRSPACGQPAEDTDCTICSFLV

B1: BsAb10 (bispecific antibody)
chain 1: EVQLVESGGGLVQPGGSLRLSCAASGFTFTSNWISWVRQAPGKGLEWVAEIDPYDGATDYADSVKGRFTISADTSKNTAYLQMNSLRAEDTAVYYCATGTDVMDYWGQGTLVTVSS
chain 2: DIQMTQSPSSLSASVGDRVTITCRASQDVSTAVAWYQQKPGKAPKLLIYSASFLYSGVPSRFSGSGSGTDFTLTISSLQPEDFATYYCQQSYTTPPTFGQGTKVEIK
chain 3: QVQLKQSGPGLVQPSQSLSVACTVSDFSLTTYGVHWVRQSPGKGLEWLGVIWSGGSTDYNAAFISRLTISKDNSKSQVFFKMNSLQTTDTAIYYCARDYGSTYVDAIDYWGQGTSVTVSS
chain 4: DIVLTQSPTSLAVSLGQRATISCRASESVESYGNRYMTWYQQKPGQPPKLLIYRAANLQSGIPARFSGSGSRTDFTLTIDPVEADDVATYYCQQSNEDPWTFGGGTKVEIK
B2: BsAb9 (bispecific antibody)
chain 1: B1 chain 1
chain 2: B1 chain 2
chain 3: EVKFLESGGGLVQPGGSLRLSCAVSGIDFSRYWMSWVRQAPGKGLEWIGEISPDSSTINYTPSLKDKFVISRDNAKNTLYLQMSKVRSADTALYYCARPSPALDYWGQGTLVTVSA
chain 4: DIVMTQSPATLSVTPGDRVSLSCRASQSISDYVYWYQQKSHESPRLLIIYASQSISGIPSRFSGSGSGSDFTLSINSVEPEDVGVYYCQNGHNFPYTFGGGTKLEIK

Legend:
human FGFR1c on cells [1] = biological target: T2, human FGFR1c on cells (human, UniProt P11362 22-822); test: radiolabel ligand assay on cells expressing only FGFR1c; could not be determined reliably
T2 construct: HEK293 cells expressing FGFR1c without KLB; also called hFGFR1c
T2 sequence (P11362 other isoform, or with tags, fused parts or gaps limits assumed): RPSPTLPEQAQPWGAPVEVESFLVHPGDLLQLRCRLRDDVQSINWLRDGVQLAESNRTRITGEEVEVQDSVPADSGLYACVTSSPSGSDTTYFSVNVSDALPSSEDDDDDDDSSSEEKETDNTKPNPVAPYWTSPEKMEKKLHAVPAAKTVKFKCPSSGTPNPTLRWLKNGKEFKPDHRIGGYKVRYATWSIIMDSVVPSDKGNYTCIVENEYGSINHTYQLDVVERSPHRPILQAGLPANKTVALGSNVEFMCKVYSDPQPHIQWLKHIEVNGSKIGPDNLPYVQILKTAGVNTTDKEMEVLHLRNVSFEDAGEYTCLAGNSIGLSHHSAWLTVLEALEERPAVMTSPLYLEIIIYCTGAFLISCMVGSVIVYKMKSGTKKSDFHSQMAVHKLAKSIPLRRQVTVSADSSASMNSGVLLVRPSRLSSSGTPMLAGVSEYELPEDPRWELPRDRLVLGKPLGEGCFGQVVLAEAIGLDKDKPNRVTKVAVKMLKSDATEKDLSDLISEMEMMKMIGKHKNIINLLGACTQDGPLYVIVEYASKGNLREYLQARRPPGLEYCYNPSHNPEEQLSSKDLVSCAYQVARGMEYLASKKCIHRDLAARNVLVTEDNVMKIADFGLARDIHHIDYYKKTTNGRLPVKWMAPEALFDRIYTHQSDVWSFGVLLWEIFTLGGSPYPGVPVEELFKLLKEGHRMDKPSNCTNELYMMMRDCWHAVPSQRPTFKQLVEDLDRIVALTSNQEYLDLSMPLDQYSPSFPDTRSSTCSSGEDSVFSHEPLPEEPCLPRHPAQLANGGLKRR

[2] = biological target: T3, human KLB/human FGFR1c complex on HEK293 cells (human, UniProt Q86Z14 53-1044; P11362 22-822); test: cell-based or functional assay
human FGFR1c on cells [3] = biological target: T2, human FGFR1c on cells; test: radiolabeled ligand cell binding assay on stable HEK293 cells, iodinated against unlabeled protein
mouse KLB = biological target: T1, mouse KLB; test: as above
[4] = biological target: T3, human KLB/human FGFR1c complex on …; test: as above
human KLB on cells = biological target: T4, human KLB on cells (human, UniProt Q86Z14 53-1044); test: as above
T4 construct: also called hKLB; beta-Klotho

Row | Binder | Kd (human FGFR1c on cells [1]) [nM] | EC50 in GAL-ELK1 assay in HEK293 cells [2] [nM] | Kd (human FGFR1c on cells [3]) [nM] | Kd (mouse KLB) [nM] | Kd [4] [nM] | Kd (human KLB on cells) [nM]
1 | B1 | > 300 | 3.2 | 300 | 15.5 | 2.3 | 6.6
2 | B2 | – | – | 300 | – | 2.2 | 9.8
